Where a chain is given by its changes, count along the chain named.
B1: AFD.v9 (Fab, V domains shown)
VH: EVQLVQSGPELKKPGASVKVSCKASGYTFTNYGMNWVRQAPGQGLEWMGWINTYTGETTYAEDFKGRFVFSLDTSVSTAYLQISSLKAEDTAVYYCEREGGVNNWGQGTLVTVSS
VL: DIQVTQSPSSLSASVGDRVTITCITSTSIESDMSWYQQKPGKVPKLLISGGNTLRPGVPSRFSGSGSGTDFTLTISSLQPEDVATYYCLQSDSLPYTFGQGTKVEIK
B2: AFD.v4 (Fab, V domains shown)
VH: B1 VH with E62D
VL: B1 VL with S28D, E30D, S31D, D32S, S34N
B3: AFD.v7 (Fab, V domains shown)
VH: B1 VH
VL: B1 VL with S28D, S34N, D92E
B4: AFD.v6 (Fab, V domains shown)
VH: B1 VH
VL: B1 VL with S28D, S34N
B5: AFD.v3 (Fab, V domains shown)
VH: B1 VH with E62D
VL: B1 VL with S28D, E30D, S34N
B6: AFD.v14 (Fab, V domains shown)
VH: B1 VH with N103S
VL: B1 VL with S34N
B7: AFD.v5 (Fab, V domains shown)
VH: B1 VH with E62D
VL: B1 VL with E30D, D32S, S34N
B8: AFD.v8 (Fab, V domains shown)
VH: B1 VH
VL: B1 VL with S34N
B9: AFD.v1 (Fab, V domains shown)
VH: B1 VH with E62D
VL: B1 VL with E30D, S31D, S34N
B10: AFD.v2 (Fab, V domains shown)
VH: B1 VH with E62D
VL: B1 VL with S28D, S31D, S34N

How the values were obtained:
[1] = biological target: basic species of AFD (VL Asp-30 isomerized to the cyclic intermediate form)
[2] = biological target: human complement factor D (CFD) (Homo sapiens, UniProt P00746); experiment: SPR

Molecule	fold decrease in CFD-binding affinity against AFD [1]	Kd [2]
human complement factor D (CFD) (from UniProt P00746 26-253) (enzyme)	2 fold	–
B1	–	0.03 nM
B2	–	0.026 nM
B3	–	≤ 0.01 nM
B4	–	≤ 0.01 nM
B5	–	≤ 0.01 nM
B6	–	0.0256 ± 0.0063 nM
B7	–	0.28 nM
B8	–	0.0167 ± 0.0044 nM
B9	–	≤ 0.01 nM
B10	–	≤ 0.01 nM
